{"source": "paper doi:10.1101/2023.12.20.572542", "about": "(bioRxiv, 2023)", "molecules": {"B1": {"name": "LRRC38 (γ4)-mCherry-FLAG (natural protein)", "chain": "CPAGCACTDPHTVDCRDRGLPSVPDPFPLDVRKLLVAGNRIQRIPEDFFIFYGDLVYLDFRNNSLRSLEEGTFSGSAKLVFLDLSYNNLTQLGAGAFRSAGRLVKLSLANNNLVGVHEDAFETLESLQVLELNDNNLRSLSVAALAALPALRSLRLDGNPWLCDCDFAHLFSWIQENASKLPKGLDEIQCSLPMESRRISLRELSEASFSECRFSLSLTDLCIIIFSGVAVSIAAIISSFFLATVVQCLQRCAPNKDAEDEDEDKDD"}, "B2": {"name": "β4 subunit-mCherry-FLAG (natural protein)", "chain": "MAKLRVAYEYTEAEDKSIRLGLFLIISGVVSLFIFGFCWLSPALQDLQATEANCTVLSVQQIGEVFECTFTCGADCRGTSQYPCVQVYVNNSESNSRALLHSDEHQLLTNPKCSYIPPCKRENQKNLESVMNWQQYWKDEIGSQPFTCYFNQHQRPDDVLLHRTHDEIVLLHCFLWPLVTFVVGVLIVVLTICAKSLAVKAEAMKKRKFS"}, "B3": {"name": "LRRC55 (γ3)-mCherry-FLAG (natural protein)", "chain": "GTSCPVLCTCRNQVVDCSSQRLFSVPPDLPMDTRNLSLAHNRITAVPPGYLTCYMELQVLDLHNNSLMELPRGLFLHAKRLAHLDLSYNNFSHVPADMFQEAHGLVHIDLSHNPWLRRVHPQAFQGLMQLRDLDLSYGGLAFLSLEALEGLPGLVTLQIGGNPWVCGCTMEPLLKWLRNRIQRCTADSQLAECRGPPEVEGAPLFSLTEESFKACHLTLTLDDYLFIAFVGFVVSIASVATNFLLGITANCCHRWSKASEEEEI"}, "B4": {"name": "human LRRC26 (γ1)-mCherry-FLAG (natural protein, UniProt Q2I0M4 27-334, looked up)", "chain": "QVSATASPSGSLGAPDCPEVCTCVPGGLASCSALSLPAVPPGLSLRLRALLLDHNRVRALPPGAFAGAGALQRLDLRENGLHSVHVRAFWGLGALQLLDLSANQLEALAPGTFAPLRALRNLSLAGNRLARLEPAALGALPLLRSLSLQDNELAALAPGLLGRLPALDALHLRGNPWGCGCALRPLCAWLRRHPLPASEAETVLCVWPGRLTLSPLTAFSDAAFSHCAQPLALRDLAVVYTLGPASFLVSLASCLALGSGLTACRARRRRLRTAALRPPRPPDPNPDPDPHGCASPADPGSPAAAAQA"}, "B5": {"name": "human LRRC26 (γ1) subunit, tags released (natural protein, UniProt Q2I0M4 27-334, looked up)", "chain": "B4 chain", "modifications": "density at N147 likely corresponding to glycosylation"}, "B6": {"name": "γ1 P270F-mCherry-FLAG (natural protein)", "chain": "B4 chain with P244F"}, "B7": {"name": "LRRD of γ1 (residues 1-261)-mCherry-FLAG (domain or fragment, human, UniProt Q2I0M4 27-261, looked up)", "chain": "QVSATASPSGSLGAPDCPEVCTCVPGGLASCSALSLPAVPPGLSLRLRALLLDHNRVRALPPGAFAGAGALQRLDLRENGLHSVHVRAFWGLGALQLLDLSANQLEALAPGTFAPLRALRNLSLAGNRLARLEPAALGALPLLRSLSLQDNELAALAPGLLGRLPALDALHLRGNPWGCGCALRPLCAWLRRHPLPASEAETVLCVWPGRLTLSPLTAFSDAAFSHCAQPLALRD"}, "B8": {"name": "β2 subunit-mCherry-FLAG (natural protein)", "chain": "MFIWTSGRTSSSYRHDEKRNIYQKIRDHDLLDKRKTVTALKAGEDRAILLGLAMMVCSIMMYFLLGITLLRSYMQSVWTEESQCTLLNASITETFNCSFSCGPDCWKLSQYPCLQVYVNLTSSGEKLLLYHTEETIKINQKCSYIPKCGKNFEESMSLVNVVMENFRKYQHFSCYSDPEGNQKSVILTKLYSSNVLFHSLFWPTCMMAGGVAIVAMVKLTQYLSLLCERIQRINR"}}, "key": {"[1]": {"target": "hSlo1EM (human Slo1 channel, tags released) (human)", "test": "SEC"}, "[2]": {"target": "hSlo1EM-eGFP-twin-strep (human Slo1 channel, tags on) (human)", "sequence (Q12791 whole entry)": "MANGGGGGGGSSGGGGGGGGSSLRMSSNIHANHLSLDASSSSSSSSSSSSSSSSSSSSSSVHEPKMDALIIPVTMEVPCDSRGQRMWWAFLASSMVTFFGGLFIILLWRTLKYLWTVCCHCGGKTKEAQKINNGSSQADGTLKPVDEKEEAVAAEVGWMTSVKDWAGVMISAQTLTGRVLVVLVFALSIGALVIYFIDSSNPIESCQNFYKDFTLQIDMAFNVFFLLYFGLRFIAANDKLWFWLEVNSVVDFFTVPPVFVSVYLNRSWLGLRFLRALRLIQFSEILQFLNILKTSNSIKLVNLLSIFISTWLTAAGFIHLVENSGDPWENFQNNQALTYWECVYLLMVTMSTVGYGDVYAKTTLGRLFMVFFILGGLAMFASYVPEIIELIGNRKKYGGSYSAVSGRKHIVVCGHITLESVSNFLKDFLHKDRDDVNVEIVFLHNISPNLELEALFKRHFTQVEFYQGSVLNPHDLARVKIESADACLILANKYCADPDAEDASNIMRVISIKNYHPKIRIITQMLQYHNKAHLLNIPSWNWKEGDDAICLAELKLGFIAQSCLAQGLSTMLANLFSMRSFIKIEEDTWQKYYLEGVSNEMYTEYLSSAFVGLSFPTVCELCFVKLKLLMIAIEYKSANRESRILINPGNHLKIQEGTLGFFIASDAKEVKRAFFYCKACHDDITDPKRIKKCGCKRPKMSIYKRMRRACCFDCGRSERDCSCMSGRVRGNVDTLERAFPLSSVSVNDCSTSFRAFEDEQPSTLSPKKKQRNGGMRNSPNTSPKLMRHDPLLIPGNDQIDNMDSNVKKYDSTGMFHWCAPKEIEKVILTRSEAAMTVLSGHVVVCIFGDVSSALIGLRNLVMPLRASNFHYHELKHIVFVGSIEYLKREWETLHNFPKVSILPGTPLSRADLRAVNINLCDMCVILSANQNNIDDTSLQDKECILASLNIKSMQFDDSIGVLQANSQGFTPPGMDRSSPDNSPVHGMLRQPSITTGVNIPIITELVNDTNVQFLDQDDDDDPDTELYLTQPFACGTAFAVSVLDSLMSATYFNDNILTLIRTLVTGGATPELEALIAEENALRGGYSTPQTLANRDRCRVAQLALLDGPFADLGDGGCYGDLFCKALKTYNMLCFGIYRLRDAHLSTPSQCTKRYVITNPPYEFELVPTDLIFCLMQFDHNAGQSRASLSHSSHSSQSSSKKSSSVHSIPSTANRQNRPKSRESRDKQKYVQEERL"}, "[3]": {"target": "hSlo1EM-eGFP-twin-strep (human Slo1 channel, tags on) (human)", "remark": "listed apart in the source"}, "[4]": {"target": "hSlo1EM-eGFP-twin-strep (human Slo1 channel, tags on) (human)", "remark": "listed apart in the source"}, "SEC": {"target": "the molecule itself", "test": "SEC"}, "[5]": {"target": "hSlo1EM-eGFP-twin-strep (human Slo1 channel, tags on) (human)", "remark": "listed apart in the source"}, "cryo-EM structure": {"target": "the molecule itself", "test": "cryo-EM structure"}, "[6]": {"target": "hSlo1EM (human Slo1 channel, tags released) (human)", "test": "cryo-EM structure"}}, "note": "Where a chain is given by its changes, count along the chain named. Names may count otherwise."}
{"molecule": "hSlo1EM (human Slo1 channel, tags released) (natural protein)", "values": [{"measurement": "stoichiometry N", "setting": "[1]", "value": 4, "unit": "subunits"}]}
{"molecule": "hSlo1EM-eGFP-twin-strep (human Slo1 channel, tags on) (natural protein)", "values": [{"measurement": "stoichiometry N", "setting": "[2]", "value": 4, "unit": "subunits"}]}
{"molecule": "B1", "values": [{"measurement": "percent of total Slo1 in complex", "setting": "[3]", "value": "< 10", "unit": "%"}]}
{"molecule": "B2", "values": [{"measurement": "percent of total Slo1 in complex", "setting": "[3]", "value": "> 90", "unit": "%"}, {"measurement": "stoichiometry N (auxiliary subunits per Slo1 tetramer)", "setting": "[4]", "value": 4}]}
{"molecule": "B3", "values": [{"measurement": "percent of total Slo1 in complex", "setting": "[3]", "value": "< 10", "unit": "%"}]}
{"molecule": "B4", "values": [{"measurement": "binding result", "setting": "SEC", "value": "binds"}, {"measurement": "percent of total Slo1 in complex", "setting": "[3]", "value": 50, "unit": "%"}, {"measurement": "stoichiometry N (auxiliary subunits per Slo1 tetramer)", "setting": "[4]", "value": 4}, {"measurement": "stoichiometry N (γ1 subunits per Slo1 tetramer)", "setting": "[5]", "value": 3.5}]}
{"molecule": "B5", "values": [{"measurement": "binding result", "setting": "cryo-EM structure", "value": "binds"}, {"measurement": "stoichiometry N (γ1 subunits per Slo1 tetramer)", "setting": "[6]", "value": 4}]}
{"molecule": "B6", "values": [{"measurement": "stoichiometry N (γ subunits per Slo1 tetramer)", "setting": "[4]", "value": 2.4}]}
{"molecule": "B7", "values": [{"measurement": "binding result", "setting": "SEC", "value": "binds"}]}
{"molecule": "B8", "values": [{"measurement": "percent of total Slo1 in complex", "setting": "[3]", "value": "> 90", "unit": "%"}, {"measurement": "stoichiometry N (auxiliary subunits per Slo1 tetramer)", "setting": "[4]", "value": 4}]}
